In patent US20240336947:

Biological target: deglucosylated type IV collagen

B1: R699, mimiviral collagen galactosylhydroxylysyl glucosyltransferase (GGT) (protein)
chain: MEQSNNDDNLLVLGIGISVHKTDGVLRFEKYCQAHNLQYMIVGEGKKWNGGNLESEAGGGQKINELLIALESIKDNKLIVVCDTYDLIPLSGPEEILRKYRFLTPDNKVVFSSELYCWPDASLVERYPKVDTKYKYLNSGAFMGYRDDIYEMIKNGVKDRDDDQLFFSIKFIETDKIVLDYKCELFQAMYRCNSDLVVHKNRIFNGYTNSYPVFAHGNGPAKKLLNHMEGYFMTEPIDGSSNTINTFKLDNEPKVFFALYVDSNDLSALKQFLGKVASIQYGNKVIYLYDRSDNEQNRKLIQISYPNYHTGVTKYVFDDFKKSDAQFYFLLEQNCIITKKDILHELIMQVKDNHRVISPMIGYEQNSTRTNFWGDIEDGYYKRSENYLDLAKHKVRGLWNVPYVYGVILMHESVVRNWDLSMVKYNDKDMDLCFSLRKHTIFMYMINNNNYGYMV
B1 was tested, and the “glucosylation of type IV collagen detected by LC-MS with UDP-[UL-13C6]-glucose” value was “R699 (FIG. 4C,4D) glucosylates collagen peptidyl galactosylhydroxylysine to [13C6]-glucosylgalactosylhydroxylysine”.
